Laboratory results: article PMC10381965

Biological target: CBF1;CCAN (CENP-LN, CENP-OPQU+, CENP-HIK-TW, CENP-C) (Saccharomyces cerevisiae;Saccharomyces …, UniProt P17106;P38907;P38265;Q06675;Q02732;P53298;P38313;Q12493;Q06162;Q12262;Q12748;P47 …, |)
Assay: cryo-EM structure (3.4 Å); free C0N3 DNA without octamer; topological entrapment, 25 bp contacted; Binding buffer for IK assembly not given in the material; proteins purified in 20 mM Hepes pH 8.0, 300 mM NaCl, 0.5 mM TCEP

B1: C0N3 153 bp (chimeric CEN3/W601) (dsDNA)
DNA 1: ATAAGTCACATGGTGCCGAGGCCGCTCAATTGGTCGTAGACAGCTCTAGCACCGCTTAAACGCACGTACGCGCTGTCCCCCGCGTTTTAATATTAGTGTATTTGATTTCCGAAAGTTAAAAAAGAAATAGTAAGAAATATATATTTCATTGAA
DNA 2: TTCAATGAAATATATATTTCTTACTATTTCTTTTTTAACTTTCGGAAATCAAATACACTAATATTAAAACGCGGGGGACAGCGCGTACGTGCGTTTAAGCGGTGCTAGAGCTGTCTACGACCAATTGAGCGGCCTCGGCACCATGTGACTTAT
B1: binds.
